Test [1] has as its target human CI-M6PR on K562 cells (human) (UniProt P11717). Nature of the test: flow cytometry, intracellular stain (fixed, permeabilized), M6PR-KO K562 cells, Alexa 647.
Test [2] shares this target. Description: flow cytometry, cell surface stain, wild type K562 cells, Alexa 647.
For test [3] the target is unchanged. Description: flow cytometry dot plot, cell surface stain, wild type K562 cells [Cont. 1].
The target is the same in test [4]. Nature of the test: flow cytometry, cell surface stain, M6PR-KO K562 cells, Alexa 647. In general terms: In flow cytometry, cells or beads pass a laser one at a time.
For test [5] the target is unchanged. Nature of the test: flow cytometry dot plot, cell surface stain, M6PR-KO K562 cells [Cont. 2].
The target is the same in test [6]. Nature of the test: flow cytometry, intracellular stain (fixed, permeabilized), wild type K562 cells, Alexa 647.
Test [7] shares this target. Nature of the test: flow cytometry dot plot, intracellular stain, M6PR-KO K562 cells [Cont. 2].
Test [8] has the same target. Description: flow cytometry dot plot, intracellular stain, wild type K562 cells [Cont. 1].
Test [9] has the same target. Description: cell-based or functional assay.

human CI-M6PR on K562 cells (human), sequence (P11717 41-2491): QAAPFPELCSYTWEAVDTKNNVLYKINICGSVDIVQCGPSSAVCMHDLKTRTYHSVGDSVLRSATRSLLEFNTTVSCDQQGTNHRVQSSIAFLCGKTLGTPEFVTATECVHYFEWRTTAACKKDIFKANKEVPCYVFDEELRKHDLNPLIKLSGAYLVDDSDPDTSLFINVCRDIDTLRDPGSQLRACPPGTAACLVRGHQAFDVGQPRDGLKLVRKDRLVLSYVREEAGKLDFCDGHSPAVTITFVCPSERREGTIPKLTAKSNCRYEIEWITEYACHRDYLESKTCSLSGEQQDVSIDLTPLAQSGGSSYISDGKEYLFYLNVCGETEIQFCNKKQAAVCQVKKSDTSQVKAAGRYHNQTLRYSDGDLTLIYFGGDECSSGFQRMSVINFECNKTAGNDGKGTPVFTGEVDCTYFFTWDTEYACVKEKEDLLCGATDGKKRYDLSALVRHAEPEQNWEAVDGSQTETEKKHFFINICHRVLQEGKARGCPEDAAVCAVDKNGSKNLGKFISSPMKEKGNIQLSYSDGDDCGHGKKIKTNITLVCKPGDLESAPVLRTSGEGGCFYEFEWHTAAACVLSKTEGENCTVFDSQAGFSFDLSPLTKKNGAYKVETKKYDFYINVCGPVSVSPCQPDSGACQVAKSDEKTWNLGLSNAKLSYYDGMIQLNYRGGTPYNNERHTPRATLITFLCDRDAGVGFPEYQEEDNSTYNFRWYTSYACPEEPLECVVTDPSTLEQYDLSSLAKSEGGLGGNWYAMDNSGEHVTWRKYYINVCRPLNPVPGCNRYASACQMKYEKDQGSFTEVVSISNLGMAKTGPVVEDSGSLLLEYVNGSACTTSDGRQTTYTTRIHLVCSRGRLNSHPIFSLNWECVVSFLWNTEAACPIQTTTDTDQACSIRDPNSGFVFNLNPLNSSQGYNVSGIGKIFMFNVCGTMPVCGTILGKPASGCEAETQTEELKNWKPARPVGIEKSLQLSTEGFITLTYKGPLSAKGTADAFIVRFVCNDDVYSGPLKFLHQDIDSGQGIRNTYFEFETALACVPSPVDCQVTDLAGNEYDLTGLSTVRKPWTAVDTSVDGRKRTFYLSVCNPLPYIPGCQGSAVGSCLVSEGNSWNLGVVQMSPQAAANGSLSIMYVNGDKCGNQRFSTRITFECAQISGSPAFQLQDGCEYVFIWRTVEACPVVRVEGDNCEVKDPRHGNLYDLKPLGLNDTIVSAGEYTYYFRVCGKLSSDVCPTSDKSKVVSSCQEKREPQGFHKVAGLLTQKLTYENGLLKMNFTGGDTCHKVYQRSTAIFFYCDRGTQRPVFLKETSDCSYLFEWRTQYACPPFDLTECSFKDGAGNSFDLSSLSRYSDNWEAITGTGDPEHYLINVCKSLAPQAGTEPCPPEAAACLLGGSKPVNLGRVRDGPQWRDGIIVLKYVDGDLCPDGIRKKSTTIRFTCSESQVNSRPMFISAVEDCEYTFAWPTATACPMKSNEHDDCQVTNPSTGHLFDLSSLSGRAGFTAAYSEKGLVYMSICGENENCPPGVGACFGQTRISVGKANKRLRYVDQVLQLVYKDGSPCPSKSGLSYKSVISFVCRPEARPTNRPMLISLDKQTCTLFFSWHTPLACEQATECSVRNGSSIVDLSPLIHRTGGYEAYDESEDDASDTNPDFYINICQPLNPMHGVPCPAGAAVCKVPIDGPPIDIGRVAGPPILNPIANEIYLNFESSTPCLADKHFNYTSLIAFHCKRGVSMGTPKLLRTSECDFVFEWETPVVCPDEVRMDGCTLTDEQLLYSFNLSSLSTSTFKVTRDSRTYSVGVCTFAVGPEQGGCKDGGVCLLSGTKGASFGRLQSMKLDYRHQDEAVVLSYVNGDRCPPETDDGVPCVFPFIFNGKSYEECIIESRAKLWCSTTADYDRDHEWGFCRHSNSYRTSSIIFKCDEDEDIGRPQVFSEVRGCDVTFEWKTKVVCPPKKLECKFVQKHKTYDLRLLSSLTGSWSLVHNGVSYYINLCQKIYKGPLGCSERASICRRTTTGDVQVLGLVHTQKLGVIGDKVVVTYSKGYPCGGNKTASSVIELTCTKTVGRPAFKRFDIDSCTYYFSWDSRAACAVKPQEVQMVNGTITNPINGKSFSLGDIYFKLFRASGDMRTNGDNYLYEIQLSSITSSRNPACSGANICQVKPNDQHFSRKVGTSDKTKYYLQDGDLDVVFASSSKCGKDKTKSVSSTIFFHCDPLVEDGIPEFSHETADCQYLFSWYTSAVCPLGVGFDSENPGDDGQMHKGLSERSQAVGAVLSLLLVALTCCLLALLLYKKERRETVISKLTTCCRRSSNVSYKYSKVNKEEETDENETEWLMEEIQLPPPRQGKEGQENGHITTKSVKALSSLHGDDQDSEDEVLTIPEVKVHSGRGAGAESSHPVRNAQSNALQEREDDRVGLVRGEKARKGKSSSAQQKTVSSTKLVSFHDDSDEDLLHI
KLH-IGF2, sequence (P01344 25-91): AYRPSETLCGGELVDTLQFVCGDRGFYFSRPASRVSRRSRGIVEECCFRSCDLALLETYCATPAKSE

As to IgG1-647 (antibody), the Median : FL18-A on M6PR-KO K562 cells (target knocked out, control) in test [1] amounted to 35.3; in [4], 14.9. For the same substance, the Median : FL18-A in test [2] was determined as 15.7; in test [6] it was 48.4. Also, the results for the Q1 (events above the Alexa 647 gate, below the FITC gate) in test [3] and in test [8] were 0.39 and 0.48, respectively. Moreover, the Q1 on M6PR-KO K562 cells (target knocked out, control) in test [5] came out at 1.47%; in test [7], 0.39%.

With KLH-IGF2 (from UniProt P01344 25-91), the Uptake pHrodo (MFI) in [9] came to 210000 MFI.

Regarding MEM-238-647 (antibody), the Median : FL18-A on M6PR-KO K562 cells (target knocked out, control) in [1] was 220; in [4], 27.7. Also, the values for the Median : FL18-A in test [2] and in test [6] were 1280 and 3630, respectively. For the same substance, the Q1 (events above the Alexa 647 gate, below the FITC gate) in [3] came out at 99.2; in [8], 99.5. For the same substance, the Q1 on M6PR-KO K562 cells (target knocked out, control) in test [5] was 13.1%; in [7], 86.8%.

(Values after patent US20260055194A1.)
